Test results from article PMC10501992, “How Pol α-primase is targeted to replisomes to prime eukaryotic DNA replication” (Molecular Cell, 2023).

T1: Pri2 (budding yeast primase accessory subunit) (S. cerevisiae, UniProt P20457 1-528)
T1 construct: Pri2, S. cerevisiae; modelled residues 1-5 (N terminus), 44-177 and 181-299 (NTD); stood in the assay as a subunit of m1; also called Pri2NTD; Pri2_(Nterm); source: subunit of Pol α-primase from S. cerevisiae strain yAE95, purified as described previously
T1 sequence: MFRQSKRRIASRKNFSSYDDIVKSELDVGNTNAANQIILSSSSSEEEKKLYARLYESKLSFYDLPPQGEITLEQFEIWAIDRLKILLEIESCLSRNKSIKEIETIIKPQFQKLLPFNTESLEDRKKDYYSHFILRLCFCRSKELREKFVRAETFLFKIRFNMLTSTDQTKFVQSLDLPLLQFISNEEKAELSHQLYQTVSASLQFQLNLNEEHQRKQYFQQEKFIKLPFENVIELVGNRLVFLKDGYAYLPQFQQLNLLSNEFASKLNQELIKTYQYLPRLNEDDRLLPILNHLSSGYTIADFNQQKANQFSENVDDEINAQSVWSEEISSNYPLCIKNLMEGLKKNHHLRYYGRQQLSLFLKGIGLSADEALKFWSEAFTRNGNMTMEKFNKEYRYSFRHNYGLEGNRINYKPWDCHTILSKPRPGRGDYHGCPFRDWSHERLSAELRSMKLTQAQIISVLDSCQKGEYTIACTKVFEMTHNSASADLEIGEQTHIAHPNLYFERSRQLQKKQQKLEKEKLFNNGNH

T2: Pol1 (budding yeast Pol α catalytic subunit) (S. cerevisiae, UniProt P13382 1-1468)
T2 construct: Pol1, S. cerevisiae; modelled: CTD 1271-1468 and CIP box F140-S149; stood in the assay as a subunit of m1; also called Pol1CTD; Pol1CIP; source: subunit of Pol α-primase from S. cerevisiae strain yAE95, purified as described previously
T2 sequence: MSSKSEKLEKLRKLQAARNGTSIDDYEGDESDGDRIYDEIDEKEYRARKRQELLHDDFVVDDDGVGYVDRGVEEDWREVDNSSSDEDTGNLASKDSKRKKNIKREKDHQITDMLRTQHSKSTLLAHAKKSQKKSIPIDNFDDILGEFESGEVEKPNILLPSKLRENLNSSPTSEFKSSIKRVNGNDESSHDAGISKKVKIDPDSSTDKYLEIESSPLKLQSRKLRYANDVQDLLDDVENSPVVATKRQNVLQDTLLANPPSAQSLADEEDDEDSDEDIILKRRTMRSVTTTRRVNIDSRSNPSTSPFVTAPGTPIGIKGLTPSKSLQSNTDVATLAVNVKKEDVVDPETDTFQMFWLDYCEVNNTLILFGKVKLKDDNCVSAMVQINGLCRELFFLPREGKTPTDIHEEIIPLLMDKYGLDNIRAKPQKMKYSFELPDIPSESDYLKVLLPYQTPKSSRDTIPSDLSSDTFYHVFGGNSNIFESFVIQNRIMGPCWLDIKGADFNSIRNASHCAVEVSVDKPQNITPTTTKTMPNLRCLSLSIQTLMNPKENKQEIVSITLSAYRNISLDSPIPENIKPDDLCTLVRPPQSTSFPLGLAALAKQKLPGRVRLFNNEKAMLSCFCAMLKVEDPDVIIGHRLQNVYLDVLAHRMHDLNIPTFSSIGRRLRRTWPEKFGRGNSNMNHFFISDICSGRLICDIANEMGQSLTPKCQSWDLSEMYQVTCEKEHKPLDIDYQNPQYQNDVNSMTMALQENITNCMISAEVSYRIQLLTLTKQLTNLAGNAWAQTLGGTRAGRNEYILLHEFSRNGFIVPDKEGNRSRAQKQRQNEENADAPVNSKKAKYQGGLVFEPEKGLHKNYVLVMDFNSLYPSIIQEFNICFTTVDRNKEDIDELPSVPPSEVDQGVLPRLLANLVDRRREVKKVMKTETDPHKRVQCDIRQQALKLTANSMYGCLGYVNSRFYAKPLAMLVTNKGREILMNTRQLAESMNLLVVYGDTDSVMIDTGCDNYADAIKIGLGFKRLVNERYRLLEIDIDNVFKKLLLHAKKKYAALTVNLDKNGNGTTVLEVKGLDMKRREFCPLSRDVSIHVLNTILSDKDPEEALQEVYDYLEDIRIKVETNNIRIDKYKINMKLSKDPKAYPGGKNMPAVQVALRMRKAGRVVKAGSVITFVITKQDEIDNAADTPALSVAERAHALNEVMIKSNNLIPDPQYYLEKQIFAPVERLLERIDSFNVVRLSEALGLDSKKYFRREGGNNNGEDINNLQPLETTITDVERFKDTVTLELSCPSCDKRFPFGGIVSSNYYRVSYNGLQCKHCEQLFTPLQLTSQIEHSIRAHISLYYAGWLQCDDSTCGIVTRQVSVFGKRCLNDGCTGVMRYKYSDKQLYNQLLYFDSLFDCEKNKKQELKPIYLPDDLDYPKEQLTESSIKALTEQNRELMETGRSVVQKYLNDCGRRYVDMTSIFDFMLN

B1: Psf2 (budding yeast GINS subunit) (natural protein, S. cerevisiae)
chain: MSLPAHLQQTFSPEEIQFIVENEPIKIFPRITTRQKIRGDDRGTGNHTRWQLITTDDKALNNMVAMRSTEVVLWIALLLKQQSKCSIVAPQWLTTKELDRKIQYEKTHPDRFSELPWNWLVLARILFNKAKDDFHDPIHELRGKIQDLREIRQIKVLKGLKYLNESHLQLDNLSLLEINELRPFITEIMDKLREIHTASLTAGTENDEEEFNI
notes: Psf2, subunit of GINS, S. cerevisiae; stood in the assay as a subunit of m2; source: subunit of CMG from S. cerevisiae strain yJY197, purified as described previously
B2: Pri1 (budding yeast primase catalytic subunit) (natural protein, S. cerevisiae)
chain: MTNSVKTNGPSSSDMEYYYKSLYPFKHIFNWLNHSPKPSRDMINREFAMAFRSGAYKRYNSFNSVQDFKAQIEKANPDRFEIGAIYNKPPRERDTLLKSELKALEKELVFDIDMDDYDAFRTCCSGAQVCSKCWKFISLAMKITNTALREDFGYKDFIWVFSGRRGAHCWVSDKRARALTDVQRRNVLDYVNVIRDRNTDKRLALKRPYHPHLARSLEQLKPFFVSIMLEEQNPWEDDQHAIQTLLPALYDKQLIDSLKKYWLDNPRRSSKEKWNDIDQIATSLFKGPKQDSHIIKLRECKEDLVLMTLYPKLDVEVTKQTIHLLKAPFCIHPATGNVCVPIDESFAPEKAPKLIDLQTEMEKNNDVSLTALQPFINQFQAYVSSLLKNELGSVKREREDDDEPASLDF
notes: Pri1, S. cerevisiae; modelled aside from its flexible N and C termini; stood in the assay as a subunit of m1; source: subunit of Pol α-primase from S. cerevisiae strain yAE95, purified as described previously
B3: Pol12 (budding yeast Pol α accessory subunit) (natural protein, S. cerevisiae)
chain: MSGSIDVITHFGPDADKPEIITALENLTKLHALSVEDLYIKWEQFSNQRRQTHTDLTSKNIDEFKQFLQLQMEKRANQISSSSKVNTSTKKPVIKKSLNSSPLFGLSIPKTPTLKKRKLHGPFSLSDSKQTYNVGSEAETNEKGNSSLKLEFTPGMAEDAVGDSAPLSHAKSSDAKTPGSSTFQTPTTNTPTTSRQNVPAGEILDSLNPENIEISSGNPNVGLLSTEEPSYNQVKVEPFYDAKKYKFRTMRQNLQEASDVLDDQIESFTKIIQNHYKLSPNDFADPTIQSQSEIYAVGRIVPDSPTYDKFLNPESLSLETSRMGGVGRRVRLDLSQVNELSFFLGQIVAFKGKNANGDYFTVNSILPLPYPNSPVSTSQELQEFQANLEGSSLKVIVTCGPYFANDNFSLELLQEFIDSINNEVKPHVLIMFGPFIDITHPLIASGKLPNFPQFKTQPKTLDELFLKLFTPILKTISPHIQTVLIPSTKDAISNHAAYPQASLIRKALQLPKRNFKCMANPSSFQINEIYFGCSNVDTFKDLKEVIKGGTTSSRYRLDRVSEHILQQRRYYPIFPGSIRTRIKPKDVSTKKETNDMESKEEKVYEHISGADLDVSYLGLTEFVGGFSPDIMIIPSELQHFARVVQNVVVINPGRFIRATGNRGSYAQITVQCPDLEDGKLTLVEGEEPVYLHNVWKRARVDLIAS
notes: Pol12, S. cerevisiae; modelled residues 1-79, 203-582 and 604-705; stood in the assay as a subunit of m1; also called Pol12NTD; source: subunit of Pol α-primase from S. cerevisiae strain yAE95, purified as described previously

What was measured:
Assay in all cases: cryo-EM structure; budding yeast replisome: 150 nM CMG on fork DNA (39 nt 3′ flap, 60 nt 5′ flap) with 1.5-fold molar excess of Tof1-Csm3, Mrc1 and Pol α-primase; 25 mM HEPES-NaOH pH 7.6, 150 mM NaOAc, 0.5 mM TCEP, 500 μM AMP-PNP, 10 mM Mg(OAc)2, on ice; 10-30% glycerol gradient with glutaraldehyde and BS3 cross-linkers
Conditions in all cases: both partners purified
[1] = target: T1, Pri2 (budding yeast primase accessory …)
[2] = target: T2, Pol1 (budding yeast Pol α catalytic …)
[3] = target: T3, Mcm3 (budding yeast) (S. cerevisiae, UniProt P24279 1-971)
T3 construct: Mcm3, S. cerevisiae; stood in the assay as a subunit of m2; source: subunit of CMG from S. cerevisiae strain yJY197, purified as described previously
T3 sequence (P24279 whole entry): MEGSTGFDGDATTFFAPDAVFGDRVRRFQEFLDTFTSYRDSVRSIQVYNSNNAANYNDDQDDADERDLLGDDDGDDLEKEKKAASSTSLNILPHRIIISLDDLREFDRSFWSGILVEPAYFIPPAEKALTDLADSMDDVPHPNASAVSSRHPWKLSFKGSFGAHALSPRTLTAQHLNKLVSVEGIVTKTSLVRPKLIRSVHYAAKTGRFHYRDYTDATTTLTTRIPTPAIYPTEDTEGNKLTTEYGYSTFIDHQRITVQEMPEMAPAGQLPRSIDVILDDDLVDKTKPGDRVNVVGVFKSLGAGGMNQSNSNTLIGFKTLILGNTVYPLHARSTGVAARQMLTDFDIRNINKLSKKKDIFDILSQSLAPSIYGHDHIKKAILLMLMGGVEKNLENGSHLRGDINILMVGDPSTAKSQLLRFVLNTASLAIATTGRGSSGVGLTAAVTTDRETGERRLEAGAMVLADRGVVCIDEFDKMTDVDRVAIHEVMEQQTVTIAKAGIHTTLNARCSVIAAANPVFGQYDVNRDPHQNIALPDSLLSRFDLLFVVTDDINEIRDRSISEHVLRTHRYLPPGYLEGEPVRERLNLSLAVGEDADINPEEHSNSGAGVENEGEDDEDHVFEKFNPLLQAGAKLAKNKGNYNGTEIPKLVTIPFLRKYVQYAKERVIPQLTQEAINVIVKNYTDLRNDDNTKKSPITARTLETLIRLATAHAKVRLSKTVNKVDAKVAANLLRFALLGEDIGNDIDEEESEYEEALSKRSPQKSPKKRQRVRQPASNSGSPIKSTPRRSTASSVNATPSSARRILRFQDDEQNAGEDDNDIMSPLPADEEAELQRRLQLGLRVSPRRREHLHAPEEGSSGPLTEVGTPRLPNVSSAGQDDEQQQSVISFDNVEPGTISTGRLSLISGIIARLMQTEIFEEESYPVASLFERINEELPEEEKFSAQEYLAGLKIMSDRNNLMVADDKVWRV

| Binder | binding result [1] | binding result [2] | binding result [3] |
| --- | --- | --- | --- |
| B1 | binds |  |  |
| B2 | binds |  |  |
| B3 |  | binds | binds |
